Experimental findings from patent CN114516919A (SUZHOU BAIDAI MEDICAL SCIENCE AND TECH LIMITED COMPANY, dated 2022) are described below.

The experiment concerns the target T1, 肾组织切片中的PLA2R1蛋白 (human, UniProt Q13018 21-1463).
T1 construct: whole, on cells
As to the kind of experiment: immunohistochemistry on FFPE kidney tissue sections, DAB.

T1 sequence (Q13018 21-1463): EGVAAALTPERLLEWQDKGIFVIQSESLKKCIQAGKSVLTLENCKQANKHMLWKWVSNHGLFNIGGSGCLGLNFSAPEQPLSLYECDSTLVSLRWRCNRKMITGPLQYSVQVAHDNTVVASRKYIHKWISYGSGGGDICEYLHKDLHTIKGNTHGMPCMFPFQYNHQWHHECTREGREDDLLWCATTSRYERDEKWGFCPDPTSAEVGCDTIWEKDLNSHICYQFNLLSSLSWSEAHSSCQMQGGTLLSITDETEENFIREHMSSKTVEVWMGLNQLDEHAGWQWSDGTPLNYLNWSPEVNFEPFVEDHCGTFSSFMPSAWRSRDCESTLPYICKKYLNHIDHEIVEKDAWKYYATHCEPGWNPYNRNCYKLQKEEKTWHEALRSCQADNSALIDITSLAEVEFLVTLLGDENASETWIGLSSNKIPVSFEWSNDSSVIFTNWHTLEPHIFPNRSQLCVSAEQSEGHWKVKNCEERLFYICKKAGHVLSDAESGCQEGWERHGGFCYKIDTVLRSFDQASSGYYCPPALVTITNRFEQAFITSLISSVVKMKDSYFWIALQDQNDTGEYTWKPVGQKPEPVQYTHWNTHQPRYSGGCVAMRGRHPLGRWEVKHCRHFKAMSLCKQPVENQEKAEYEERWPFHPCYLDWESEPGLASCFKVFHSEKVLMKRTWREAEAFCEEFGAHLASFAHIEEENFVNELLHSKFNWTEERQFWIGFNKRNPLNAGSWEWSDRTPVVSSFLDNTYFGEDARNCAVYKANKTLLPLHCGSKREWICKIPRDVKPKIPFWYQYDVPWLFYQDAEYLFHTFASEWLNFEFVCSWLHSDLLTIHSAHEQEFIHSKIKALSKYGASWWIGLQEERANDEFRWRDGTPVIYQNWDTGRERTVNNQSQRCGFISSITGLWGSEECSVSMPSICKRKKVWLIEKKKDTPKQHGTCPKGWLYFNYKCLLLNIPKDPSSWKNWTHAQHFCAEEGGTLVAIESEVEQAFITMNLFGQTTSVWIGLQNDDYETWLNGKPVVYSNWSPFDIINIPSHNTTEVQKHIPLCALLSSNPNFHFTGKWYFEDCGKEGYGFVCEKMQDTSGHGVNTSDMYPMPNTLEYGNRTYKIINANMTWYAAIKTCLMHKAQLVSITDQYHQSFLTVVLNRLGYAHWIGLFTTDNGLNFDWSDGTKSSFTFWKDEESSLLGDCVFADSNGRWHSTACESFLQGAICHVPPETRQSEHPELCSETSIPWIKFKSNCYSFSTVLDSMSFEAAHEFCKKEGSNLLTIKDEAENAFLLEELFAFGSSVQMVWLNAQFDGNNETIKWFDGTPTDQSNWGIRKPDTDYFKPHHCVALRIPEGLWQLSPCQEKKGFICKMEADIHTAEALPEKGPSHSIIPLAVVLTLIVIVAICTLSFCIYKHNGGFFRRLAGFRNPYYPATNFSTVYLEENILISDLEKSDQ

B1: 54D11抗PLA2R重组兔单克隆抗体 (antibody, V domains shown)
VH: QSVEESGGRLVTPGTPLTLTCTVSGIDLSSHGMGWVRQAPGKGLEWIGYINTGGSAYYASWAKGRFTISRTSTTVDLKMTSLTTEDTATYFCARGDPDYTSGFPIWGPGTLVTVSS
VL: AFEMTQTPASVEVAVGGTVTIKCQASESISSWLAWYQQKPGQPPKLLIYRASTLASGVPSRFSGSGSGTQFTLTISGVECADAATYYCQQGYSSHNIDNIFGGGTEVVVR
notes: also called 54D11抗PLA2R单克隆抗体; 54D11克隆的PLA2R重组兔单克隆抗体
Regarding B1, the binding result was “binds”.
